According to the DeepSol protein solubility set:

assay: soluble on expression in E. coli; label from the status in PepcDB or PDB records

| Sequence | soluble on expression in E. coli |
| --- | --- |
| KHHHHHHIKPGALCVIDTPEGKGTGFFSGNDIVTAAHVVGNNTFVNVCYEGLMYEAKVRYMPEKDIAFITCPGDLHPTARLKLSKNPDYSCVTVMAYVNEDLVVSTAAAMVYGNTLSYAVRTQDGMSGAPVCDKYCRVLAVHQTNTGYTGGAVIIDPTDFHPV | soluble |
| MTSAYFGVAGGSNTGAQSAYFGVGGGPAGGGGGASKVGGGAAPPPGTSVYMGAGGGGGGGGAQSAYFAVGGAPVGGAPAAVSIGAPPPAGGGGASTMTALGGAPSGASTMTAVGGAPRGASTMTAVGGVPSGASTMTAVGGAPTGASTMTAVGGAPTGASPMTAFGGAPTGASTMTAVGGAPTGASTMTAVGGAPTGASTMTAVGGAPTGASTMTAVGGAPTGASTMTAVGGVPTGASTMTAIGGAPSGASTMTAVGGAPRGASTMTAVGGAPTGASTMTAVGAAPGGASTMTAVGGAPRGASTMTAVGAPGGGASALGAAPPAGSMSGGGGGATSGYFGVGQGVMGGGGAVGQSAYFGVGGGAAGGAKTGGGGGGGIPGQSMYMGAGGGGGAGGGATSAYFAPK | not soluble |
| MKYLLVDLSGKVDNYDKALYQALEKELSNEKSSIQLLIPGHGLIRLIPNKFSQTEFIVKRLIKALEGGINYIYLLLHVAFKKIDTIHFQWLPFVEVVGIEKYILYLLHVLSPQTKVILTIHNIYPHGVKSMSDSGKQKYKKRFRDTCRNIDNIIVHTESSKMEVIKEFDFVPDIISIVHHGVFIPKIRISKKEFLQKNKYVILQFGLQTYYKGTDILVDAVNLLPAEYSEKIETRIVGGVGESYLQELKGKDSNSLIHWKSYFLSNDELYEEINNSDVLVLPYREISQSGVLLLSIYFEKNIICSDLPSFVETIHGDQDNSLDHDFFFKNNDPSSLCELLMRYIDSNINNEKIQYRIKHLKNLYSWENAAKATISIYRK | not soluble |
| MKLNNHNLKEIYSLSLNELKEELFKLGLKSFISKQIYSWIYQKRIFNFDKFSNIAKNNVIILKENFSNNLLKINSYQSNSDGSIKFEFLTDKNLIINCMIIKFKNGFLIKINPFGINFKKEIINLSTNELVLQILLIQQFLDQRKLGNITNVIIKGLQDSLLNMDVVSNFINIINNENGLNIGKRKIAVWTSGINVDLIKWGQLQNQIELIISMNASNSLIYQKIMLKKLNQNWSFLKLIEQIKAYTKITNNRVVLEYLLIDKINDDLNYANELVELLKNILCYVLLIPYNLNNYRTSANLDDFFNILSVNKIRISKRIRKSNDLDISFKQLKIKELEHHHHHH | not soluble |
| MLDVPVLLAAVSPDSPCGDDLEYDAAFLELERIAQGQPERQMGDAVLPAEPPEWPRVRALASELFGRSKDLRVANLLLQSNVALDGLDGLADGLLLVRELLGQYWDGVYPLLDADDDNDPTFRINALTGLVAEPLLQLVWAIPLVRSRAFGPVNLRAALNAAGLQRFASETLSPEQIAGAFADADADALAATRRALDGAQEHALAIESGVAERVGSAQGLDLGPLRQLLRQALQVFDLYGPQGAGESLAPGAEAVADEQVGAAPVAAVAAPAPRASGEIANREDVLRQLDRLLEYYVRHEPSSPVPVLLKRAKTLVTADFAEIVRNLIPDGISQFETLRGPESE | not soluble |
| MWTGKTGNMLGALALTLTDRIRAEVNVSLDAGGETAAALVLLGANPALTVAEIAEALGLTHSGAVRLVDRLCVSGLAERQSGPDARAVHVRLTSAGARQRRRALLRRQAVLDHALQALSPSEEAAFAQMLDKLLRRMLDFPDQGHRFCRLCDEDLCVPHGCPVEERLVELLERQARETGL | not soluble |
| MGHHHHHHSHPPCRPCRYKKYVFLDPLAGAVTKTHVMLGAETEEKLFDAPLSISKREQLEQQVGGAGQRWRQVQWPRALPELLSSQGCWALYSTHGRCTQGLVGCPCRSLSPLTCPCLILQVPENYFYVPDLGQVPEIDVPSYLPDLPGIANDLMYIADLGPGIAPSAPGTIPELPTFHTEVAEPLKTYKMGY | not soluble |
| MAHHHHHHMKQSDFIFFVLRFWHFVPPYIIEKYAVSAFLNEDFLRAIRLKIEELRPPGRREPHSCVLKEHSDTSFTRKEVLPPPERLSNPVAMDHWVLYEPKVQNFPLVDGFFLVDSNPMTLVGLRMTTAGEHRTTTSTVRQFTECLAAYFNGWEELSRDMSWEIINVQHADSTPINDWQRCDVVDSDNVSRAENREIAAFWEEEVRQYIAAVSSGDF | not soluble |
| MGSDKIHHHHHHMPSIRVVNLKKYFGKVKAVDGVSFEVKDGEFVALLGPSGCGKTTTLLMLAGIYKPTSGEIYFDDVLVNDIPPKYREVGMVFQNYALYPHMTVFENIAFPLRARRISKDEVEKRVVEIARKLLIDNLLDRKPTQLSGGQQQRVALARALVKQPKVLLFDEPLSNLDANLRMIMRAEIKHLQQELGITSVYVTHDQAEAMTMASRIAVFNQGKLVQYGTPDEVYDSPKNMFVASFIGNPPTNFLRDFSVSVENKQTILKRDDVIIKLPEPVDVKLKEVVVGIRPEHCRISRERVENSIPGVVYVVEPLGRDIIVNVKTEKGEIIKVFGDTGKAPQPGENVFLVPDLRKIHLFNPETEETIL | not soluble |
| MGHHHHHHGSSSCAVSGASGCLPPARSRIFKIIVIGDSNVGKTCLTYRFCAGRFPDRTEATIGVDFRERAVDIDGERIKIQLWDTAGQERFRKSMVQHYYRNVHAVVFVYDMTNMASFHSLPAWIEECKQHLLANDIPRILVGNKCDLRSAIQVPTDLAQKFADTHSMPLFETSAKNPNDNDHVEAIFMTLAHKLKSH | soluble |
| MSLSESAPTPRRERVIVGMSGGVDSSVSALLLLQQGYQVEGLFMKNWDEDDGTEYCTAREDLADAQAVCDRIGIKLHTANFAAEYWDNVFEHFLAEYKAGRTPNPDILCNREIKFKAFLDYALMLGADLIATGHYVRRRDRDGRTELLKGLDPNKDQSYFLHAVGGEQIARSLFPVGELEKPEVRAIAEKHGLATAKKKDSTGICFIGERRFTDFLKQYLPAQPGDIETTEGKVIGRHSGLMYHTIGQRQGLGIGGLKEAGDDPWYVLGKDLQRNVLLVGQGNDHPLLFSRALLASRIYWVNPVELERPRRLRAKVRYRQSDQDCVLEKTAEGYRAVFDEPQRAVTPGQSVVFYDGDVCLGGGVIETAEAWDFGGRPEGHHHHHH | soluble |
| MKTVALIQARLGSSRLPCKMMLSLHGLPVIDWVVRRVRRATLVDEVVVATSTQPENDILEHHLSRQGVAVFRGPEDDVLERFRLAGAAYGAEQVVRVCADNPLIWGGAIDDLIRFWRAEGCDYAYNHIPRGNLYPDGLGAETLSFALLEEVAREATLPEHREHCLSFIWAHPERYTIRTFDPADPALHRPDLKLDMDTPADYRYLALMDIHPDITPEELVAMLPRTALEHHHHHH | soluble |
| MRQIKVVLIGGGTGLSVMARGLREFPIDITAIVTVADNGGSTGKIRDEMDIPAPGDIRNVIAALSDSESVLSQLFQYRFEENQISGHSLGNLLIAGMTNITNDFGHAIKALSKILNIKGRVIPSTNTSVQLNAVMEDGEIVFGETNIPKKHKKIDRVFLEPNDVQPMEEAIDALREADLIVLGPGSLYTSVISNLCVNGISDALIHSDAPKLYVSNVMTQPGETDGYSVKDHIDAIHRQAGQPFIDYVICSTQTFNAQVLKKYEEKHSKPVEVNKAELEKESINVKTSSNLVEISENHLVRHNTKVLSTMIYDIALELISTIPFVPSDKRK | not soluble |
| GDIVAVHPIRRGTAEAIEVVAHGDKKTSAIIGRRISGIKWPEGCHIAAVVRAGTGETIMGHHTETVIQDGDHIIFFVSRRRILNELEKLIQVKMGFFG | not soluble |
| MEGIIDKENERVRRFFALLDDMEKKVERLARDNRPPFNGERFLTDRELSGMLKISRRCLQDYRDQGRIPYIQLGGKILYRQSDIERLLEENYHPALV | not soluble |
| MRGSHHHHHHGSGKSYPTVSADYQKAVEKAKKKLRGFIAEKRCAPLMLRLAWHSAGTFDKGTKTGGPFGTIKHPAELAHSANNGLDIAVRLLEPLKAEFPILSYADFYQLAGVVAVEVTGGPEVPFHPGREDKPEPPPEGRLPDATKGSDHLRDVFGKAMGLTDQDIVALSGGHTIGAAHKERSGFEGPWTSNPLIFDNSYFTELLSGEKEGLLQLPSDKALLSDPVFRPLVDKYAADEDAFFADYAEAHQKLSELGFADAHEM | soluble |
